Source: article PMC9943680 (Nucleic Acids Research, 2023)
Where a chain is given by its changes, count along the chain named. Values belong to the binder of their own block, whether it stands above or below them.

How the values were obtained:
[1] = target: T1, TR4_(341–596), ligand-binding domain of human testicular receptor 4 (human, UniProt P49116 341-596); assay: crystal structure
T1 sequence (looked up): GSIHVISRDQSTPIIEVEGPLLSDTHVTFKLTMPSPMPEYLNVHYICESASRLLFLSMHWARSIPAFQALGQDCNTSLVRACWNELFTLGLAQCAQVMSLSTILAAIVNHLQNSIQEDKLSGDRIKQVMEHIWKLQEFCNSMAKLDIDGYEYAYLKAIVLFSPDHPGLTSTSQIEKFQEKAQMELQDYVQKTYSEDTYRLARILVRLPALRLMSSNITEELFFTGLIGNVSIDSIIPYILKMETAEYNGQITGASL

TR4DBD-CTE S189A = target: T2, TR4DBD-CTE S189A (Homo sapiens, UniProt P49116 113-200, S189A); assay: MST
T2 sequence: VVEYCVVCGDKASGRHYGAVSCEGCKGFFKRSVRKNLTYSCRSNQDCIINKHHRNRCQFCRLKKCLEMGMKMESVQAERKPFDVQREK

TR4DBD-CTE R168A = target: T3, TR4DBD-CTE R168A (Homo sapiens, UniProt P49116 113-200, R168A); assay: MST
T3 sequence: T2 sequence with R56A, A77S

TR4DBD-CTE R191A = target: T4, TR4DBD-CTE R191A (Homo sapiens, UniProt P49116 113-200, R191A); assay: MST
T4 sequence: T2 sequence with A77S, R79A

TR4DBD-CTE R127C = target: T5, TR4DBD-CTE R127C (Homo sapiens, UniProt P49116 113-200, R127C); assay: MST
T5 sequence: T2 sequence with R15C, A77S

TR4DBD-CTE N167K = target: T6, TR4DBD-CTE N167K (Homo sapiens, UniProt P49116 113-200, N167K); assay: MST
T6 sequence: T2 sequence with N55K, A77S

TR4DBD = target: T7, TR4DBD (Homo sapiens, UniProt P49116 113-189); assay: MST
T7 sequence: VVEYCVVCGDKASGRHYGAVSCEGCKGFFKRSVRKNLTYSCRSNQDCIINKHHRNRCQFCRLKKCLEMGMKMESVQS

- binding result [1]: binds
B1: JAZF1_(51–75) (domain or fragment, human, UniProt Q86VZ6 51-75, looked up)
chain: QQPTYVALSYINRFMTDAARREQES

B2: idRE, 23 bp DR1 (dsDNA)
DNA 1: GGCAGAGGTCAAAGGTCAAACGT
DNA 2: ACGTTTGACCTTTGACCTCTGCC
- binding signal (TR4DBD-CTE S189A): 12 fold decrease vs WT
- binding signal (TR4DBD-CTE R168A): 12 fold decrease vs WT
- binding signal (TR4DBD-CTE R191A): ~60 fold decrease vs WT
- binding signal (TR4DBD-CTE R127C): ~280 fold increase vs WT
- binding signal (TR4DBD-CTE N167K): > 60 fold increase vs WT

B3: 18 bp DR1 (dsDNA)
DNA 1: GGCAGAGGTCAAAGGTCA
DNA 2: CTGACCTTTGACCTCTGC
- Kd (TR4DBD): 38.3 µM
